Measurements from PMC3719020.

Tests used:
Pelota = Pelota (UniProt Q9BRX2); assay: pull-down; 800 μl RRL incubated with 200 μl of Pelota resin (Pelota immobilized via CnBr); unconjugated quenched CnBr resin as control; depleted lysate blotted for Hbs1
[1] = molecular target: β-VHP ribosome-nascent chain complexes (RNCs) (not stated | rabbit (endogenous in reticulocyte lysate)) (UniProt P60468)
[2] = molecular target: 60S-nascent chain-tRNA complex (β-VHP) (not stated | rabbit (endogenous in reticulocyte lysate)) (UniProt P60468)

UniProt Q9BRX2, sequence (Q9BRX2 whole entry): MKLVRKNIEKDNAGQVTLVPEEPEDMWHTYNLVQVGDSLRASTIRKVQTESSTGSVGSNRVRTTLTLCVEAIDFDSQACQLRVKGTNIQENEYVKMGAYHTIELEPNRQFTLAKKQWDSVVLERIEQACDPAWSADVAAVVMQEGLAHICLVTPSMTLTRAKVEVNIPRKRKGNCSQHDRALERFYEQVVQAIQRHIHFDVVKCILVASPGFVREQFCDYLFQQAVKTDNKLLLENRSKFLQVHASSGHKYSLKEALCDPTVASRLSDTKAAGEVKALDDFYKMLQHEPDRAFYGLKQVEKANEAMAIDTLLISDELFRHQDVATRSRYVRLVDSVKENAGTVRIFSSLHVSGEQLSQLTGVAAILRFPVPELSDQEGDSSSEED

percent of Hbs1 depleted from the lysate by the Pelota resin (Pelota) | inhibition of β-VHP nascent chain ubiquitination by the GTPase mutant Hbs1 H348A (Hbs1-DN) added to the translation reaction [1] | inhibition of β-VHP nascent chain ubiquitination by the GTPase mutant Hbs1 V269G added to the translation reaction [1] | nascent chain ubiquitination of sucrose gradient fractions incubated with E1, E2, ubiquitin and ATP; 60S-nascent chain complexes against 80S RNCs [2] | Substance
80 to 90% | – | – | – | Hbs1 (enzyme)
– | 90% | 60% | 10 fold | Listerin (enzyme)
